Molecular target: the molecule itself
Experiment: crystal structure
GSQASS [NCAP segment 179-GSQASS-184]: binds. AALALL [NCAP segment 217-AALALL-222]: binds. GQTVTK [NCAP segment 243-GQTVTK-248]: binds.
